Test [1] concerns the target T1, membrane-bound HLA-A0201 molecule on T2 cells (human).
T1 construct: whole, on cells; also called human MHC class 1 molecule
Kind of test: T2 cell HLA-A0201 stabilisation, BB7.2 staining, flow cytometry. The procedure:
(§1) Thus, the detection of this specific epitope is indicative of stable membrane-bound HLA-A0201 molecules loaded with peptide.
(§2) T2 cells were propagated in Iscove's complete medium (Iscove's medium supplemented with 10% heat-inactivated bovine serum, 120.0 units per ml of penicillin G sodium, 120 μg per ml of streptomycin sulphate, and 0.35 mg per ml of L-glutamine). The ability of PSMA peptides (Table 1) to bind and stabilize surface HLA-A0201 molecules on T2 cells was determined utilizing a protocol documented in the art (Deng, Y. (1997) J Immunol 158:1507-1515). In essence, 0.5×10⁶ T2 cells were incubated with 125.0 μM of the test peptide in 200.0 μl of serum-free culture medium (Iscove's medium supplemented with 120.0 units per ml of penicillin G sodium, 120.0 μg per ml of streptomycin sulphate and 0.35 mg per ml of L-glutamine) overnight at 37° C. Subsequently, cells were washed twice with Iscove's medium (without bovine serum) to remove free PSMA peptide. To the cell pellet was added 1.0 ml of complete Iscove's medium (supplemented with fetal bovine serum (10% final)) containing 5.0 μg per ml of brefeldin A (Sigma), 12.5 μg per ml of anisomycin (Sigma) and 5.0 μg per ml of cyclohexamide (Sigma). The samples were incubated for 3.0 hr in a 37° C. CO₂ incubator. The cells were subsequently incubated 30 min on ice prior to two washes with ice-cold PBA (phosphate buffered saline (pH 7.2) containing 2.0% bovine serum). 100.0 μl of PBA containing 5.0 μg of monoclonal antibody BB7.2 was added to each test sample. The reaction was allowed to proceed on ice for 45 min. Cells were then washed three times with ice-cold PBA. The binding of BB7.2 was detected via the addition of 100.0 μl of PBA containing 1.0 μg of goat anti-mouse IgG-Fc fluorescein (FITC) conjugate (BETHYL Laboratories Inc.). After a 30 min incubation on ice, cells were twice washed with ice-cold PBA, and twice with ice-cold PBS (pH 7.2). […] Samples were analyzed by Flow Cytometry. Results were expressed in units of Fluorescence Index (FI), calculated by the equation: […]
Background: Flow cytometry measures light scatter and fluorescence of single cells or particles in a stream.

In test [2] the target is T1, membrane-bound HLA-A0201 molecule on T2 …. Nature of the test: T2 cell HLA-A0201 stabilisation at 125.0 µM peptide, BB7.2 staining, flow cytometry. How it is done:
as §1, §2

Test [3] shares this target. Kind of test: T2 cell HLA-A0201 stabilisation, BB7.2 staining, flow cytometry. How it is done:
as §2, with “The samples were incubated for 3.0 hr in a 37° C. CO₂ incubator. The cells were subsequently incubated 30 min on ice prior to two washes with ice-cold PBA (phosphate buffered saline (pH 7.2) containing 2.0% bovine serum). 100.0 μl of PBA containing 5.0 μg of monoclonal antibody BB7.2 was added to each test sample. The reaction was allowed to proceed on ice for 45 min. Cells were then washed three times with ice-cold PBA.” left out, “Inc.).” for “Inc.). After a 30 min incubation on ice, cells were twice washed with ice-cold PBA, and twice with ice-cold PBS (pH 7.2).”
The source holds these as a separate data set.

Where two headings read alike, the source gives them in different places.

In the case of NLNGAGDPL (also called PSMA 260-268) [CLP-331], in test [1], the binding result was “no binding”.

With MMNDQLMFL (also called CPL-336; PSMA 663-671) [CLP-336], the “Fluorescence Index (FI)” value in test [2] was found to be 3.7 FI.

B1: CLP-324 (peptide)
peptide: LDSVELAHY
notes: Negative control; also called negative control peptide; PSMA 105-113
B1: the binding result in test [3] is recorded as “no binding (tested: 125.0 µM peptide)”.

Turning to PMFKYHLTV (also called PSMA 568-576) [CLP-334], in test [1], the binding result was “no binding”.

Regarding LMYSLVHNL (also called PSMA 469-477) [CLP-333], the “Fluorescence Index (FI)” value in test [2] came to 2.7 FI.

As for LLHETDSAV (also called PSMA 4-12) [CLP-326], in test [2], the “Fluorescence Index (FI)” value turned out to be 0.6 FI.

Take NMKAFLDEL (also called PSMA 57-65) [CLP-329]: the binding result in test [1] is “no binding”.
